Results as given in the Human Domainome abundance scans (Beltran et al. 2025).
± gives the uncertainty stated by the source.

B1: Gamma-crystallin S, residues 96 to 176; numbered along this chain, P22914 (parent)
chain: IQIFEKGDFSGQMYETTEDCPSIMEQFHMREIHSCKVLEGVWIFYELPNYRGRQYLLDKKEYRKPIDWGAASPAVQSFRRI
B2: Chromodomain-helicase-DNA-binding protein 5, residues 411 to 463; numbered along this chain, Q8TDI0 (parent)
chain: EEDDHMEFCRVCKDGGELLCCDACPSSYHLHCLNPPLPEIPNGEWLCPRCTCP

Variants of: B1
Experiment: abundance fitness (aPCA) (normalised: wild type 0, dead -1); higher = more abundant; growth selection in yeast, the domain comes from the species named
Details: Homo sapiens
For IQIFEKGDFSGQMYETTEDYPSIMEQFHMREIHSCKVLEGVWIFYELPNYRGRQYLLDKKEYRKPIDWGAASPAVQSFRRI [C20Y], the abundance fitness was -0.035 ± 0.1. IQIFEKGDFSGQMYETTEDCPSIMEQFHMREIHSCKVLEGVWKFYELPNYRGRQYLLDKKEYRKPIDWGAASPAVQSFRRI [I43K] gave an abundance fitness of -0.123 ± 0.1. Work on IQIFEKGDFSGQMYETTEDCPSIMEQFHMREIHSCKVLEGVWGFYELPNYRGRQYLLDKKEYRKPIDWGAASPAVQSFRRI [I43G] yielded an abundance fitness of 0.028 ± 0.042. With IQIFEKGDFSGQMYETTADCPSIMEQFHMREIHSCKVLEGVWIFYELPNYRGRQYLLDKKEYRKPIDWGAASPAVQSFRRI [E18A] the abundance fitness was -0.087 ± 0.061. Work on IQIFEKGDFSGQMYETTEDCPSIMEQFHMREIHSCKVLEGVWIFYELPNYRKRQYLLDKKEYRKPIDWGAASPAVQSFRRI [G52K] yielded an abundance fitness of -0.438 ± 0.12. IQIFEKGDFSGQMYETTEDCPSIMEQFHMREIHSCKVLEGVWIFYELPNYRPRQYLLDKKEYRKPIDWGAASPAVQSFRRI [G52P] showed an abundance fitness of -0.89 ± 0.24. With IQTFEKGDFSGQMYETTEDCPSIMEQFHMREIHSCKVLEGVWIFYELPNYRGRQYLLDKKEYRKPIDWGAASPAVQSFRRI [I3T] the abundance fitness was -0.185 ± 0.053. Variant IQIFEKGDFSGQMYETTEDCPSIMEQFHMREIHSCKVLEGVWIFYELPNYRGIQYLLDKKEYRKPIDWGAASPAVQSFRRI [R53I] has an abundance fitness of -0.163 ± 0.1. Work on IGIFEKGDFSGQMYETTEDCPSIMEQFHMREIHSCKVLEGVWIFYELPNYRGRQYLLDKKEYRKPIDWGAASPAVQSFRRI [Q2G] yielded an abundance fitness of 0.035 ± 0.046. In the case of IQIFEKGDFSGQMYETTEDCPKIMEQFHMREIHSCKVLEGVWIFYELPNYRGRQYLLDKKEYRKPIDWGAASPAVQSFRRI [S22K], the abundance fitness is reported as 0.062 ± 0.099. With IQIFEKGDFSGQMYETTEDCPSIMEQFHMREIHSCKVLEGVWIFYELPHYRGRQYLLDKKEYRKPIDWGAASPAVQSFRRI [N49H] the abundance fitness was -0.004 ± 0.057. In the case of IQIFEKGDFSGQMYETTEDCPSIMEQFHMREIHSCKVLEGVWIFYELPNYRGRQYLLDKKEYRKPIDWGAASPAVQSFRYI [R80Y], the abundance fitness is reported as -0.919 ± 0.49. With IQIFEKGDFSGQMYETTEDCPSIMEQFHMREIHSCKVLEGVWIFYELPNYRGRQYLLDKKEYRKPIDYGAASPAVQSFRRI [W68Y] the abundance fitness was -0.425 ± 0.45.

Variants of: B2
Experiment: as above
Details: Homo sapiens
In the case of N34W, the abundance fitness is reported as -0.204 ± 0.067. With N34M the abundance fitness was -0.221 ± 0.11. Work on N34A yielded an abundance fitness of -0.018 ± 0.052. With N34F the abundance fitness was 0.066 ± 0.096. N34L showed an abundance fitness of -0.015 ± 0.048. For N34K, the abundance fitness was 0.046 ± 0.1. With N34R the abundance fitness was -0.039 ± 0.057. For H29P, the abundance fitness was -0.732 ± 0.15. Work on H29S yielded an abundance fitness of -0.825 ± 0.14. With G43P the abundance fitness was -0.041 ± 0.047. With G43L the abundance fitness was -0.152 ± 0.068. G43N gave an abundance fitness of 0.039 ± 0.07. For G43F, the abundance fitness was 0.149 ± 0.13. G43V gave an abundance fitness of 0.004 ± 0.066. With N42Q the abundance fitness was -0.211 ± 0.15. With N42M the abundance fitness was -0.137 ± 0.088. In the case of N42T, the abundance fitness is reported as 0.014 ± 0.065. In the case of N42H, the abundance fitness is reported as -0.054 ± 0.1. In the case of N42E, the abundance fitness is reported as -0.022 ± 0.071. For L33T, the abundance fitness was -0.198 ± 0.049. L33H gave an abundance fitness of -0.706 ± 0.21. In the case of L33R, the abundance fitness is reported as -0.6 ± 0.053. Work on L33C yielded an abundance fitness of -0.125 ± 0.084. In the case of C24H, the abundance fitness is reported as 0.139 ± 0.13. With C24Y the abundance fitness was -0.606 ± 0.14. Work on C24E yielded an abundance fitness of -0.564 ± 0.11. C24K gave an abundance fitness of -0.437 ± 0.12. C20W gave an abundance fitness of -0.029 ± 0.069. In the case of C20D, the abundance fitness is reported as 0.217 ± 0.08. Work on C20I yielded an abundance fitness of 0.073 ± 0.06. C20P gave an abundance fitness of 0.146 ± 0.073. C20K showed an abundance fitness of 0.01 ± 0.083. C20V gave an abundance fitness of 0.007 ± 0.052. C20Y showed an abundance fitness of 0.125 ± 0.092. Variant G16M has an abundance fitness of -0.301 ± 0.13. Variant G16V has an abundance fitness of -0.36 ± 0.063. Work on G16E yielded an abundance fitness of 0.411 ± 0.12. In the case of G16K, the abundance fitness is reported as -0.482 ± 0.16. Variant E1I has an abundance fitness of 0.425 ± 0.27. For E1C, the abundance fitness was -0.893 ± 0.47. E1A showed an abundance fitness of -0.518 ± 0.1. With E1G the abundance fitness was -0.304 ± 0.044. S26Q showed an abundance fitness of -0.387 ± 0.095. In the case of S26V, the abundance fitness is reported as 0.02 ± 0.063. Variant S26D has an abundance fitness of 0.011 ± 0.099. Work on S26C yielded an abundance fitness of -0.107 ± 0.054. S26H showed an abundance fitness of -0.008 ± 0.067. With S26R the abundance fitness was -0.106 ± 0.078. In the case of S26W, the abundance fitness is reported as -0.37 ± 0.083. Work on L18N yielded an abundance fitness of -0.932 ± 0.49. L18S gave an abundance fitness of -0.754 ± 0.13. Work on L18F yielded an abundance fitness of -0.969 ± 0.24. For L18I, the abundance fitness was 0.035 ± 0.14. Variant L18C has an abundance fitness of -0.288 ± 0.14. In the case of L18D, the abundance fitness is reported as -0.972 ± 0.32. Variant L18M has an abundance fitness of -0.019 ± 0.1. Variant L18P has an abundance fitness of -0.91 ± 0.29.
